Measurements from US20190194299A1 (Dana-Farber, published 2019).

B1: 3A1 scFvFc (scFv, V domains shown)
VH: QVQLVQSGAEVKKPGSSVKVSCKASGGTFSSYAVSWVRQAPGQGLEWVGRIIPIFGKANYAQKFQGRVTITADKSTSTAYMELSSLRPEDTAVYYCARDQGISANFKDAFDIWGQGTTVTVSS
VL: ETTLTQSPATLSVSPGERATLSCRASESVGSNLAWYQQKPGQAPSLLIYGASTRATGIPDRFSGSGSGTDFTLTISSLQSEDFAAYYCQQYNNWPLTFGPGTKVEIK
B2: 3A1 IgG1 (antibody, V domains shown)
VH: QVQLVQSGAEVKKPGSSVKVSCKASGGTFSSYAVSWVRQAPGQGLEWVGRIIPIFGKANYAQKFQGRVTITADKSTSTAYMELSSLRPEDTAVYYCARDQGISANFKDAFDIWGQGTTVTVSS
VL: ETTLTQSPATLSVSPGERATLSCRASESVGSNLAWYQQKPGQAPSLLIYGASTRATGIPDRFSGSGSGTDFTLTISSLQSEDFAAYYCQQYNNWPLTFGPGTKVEIK
B3: 1E9 scFvFc (scFv, V domains shown)
VH: QVQLVQSGGGVVQPGRSLRLSCVASEFTFNTYGMHWVRQAPGKGLEWVAAISYDGTKKFYADSLKGRFTISRDNSKNTLYLQMNSLRSEDTAVYYCARSGDSDAFDIWGQGTMVTVSS
VL: SYELTQPPSVSVSPGQTATITCSGDELGDKFAFWYQQKPGQSPVLVIYQDSKRPSGIPERFSGSNSGNTATLTISGTQALDEADYYCQAWDSNSYVFGTGTKVTVL
B4: 1F8 scFvFc (scFv, V domains shown)
VH: EVQLVQSGAEVKEPGSSVKVSCKASGGTFGSYAINWVRQAPGQRLEWMGWIDAANGNTKYSQKFQGRVTITGDTSASTAYMELSSLRSEDTAVYYCARDRWMTTRAFDIWGQGTMVTVSS
VL: QPVLTQPPSASGTPGQRVTISCSGSSSNIGSNYVFWYQQLPGMAPKLLISRNNQRPSGVPDRFSGSKSGTSASLAISGPQSEDEADYYCAAWDDSLRGPVFGGGTRVTVL
B5: 1F8 IgG1 (antibody, V domains shown)
VH: EVQLVQSGAEVKEPGSSVKVSCKASGGTFGSYAINWVRQAPGQRLEWMGWIDAANGNTKYSQKFQGRVTITGDTSASTAYMELSSLRSEDTAVYYCARDRWMTTRAFDIWGQGTMVTVSS
VL: QPVLTQPPSASGTPGQRVTISCSGSSSNIGSNYVFWYQQLPGMAPKLLISRNNQRPSGVPDRFSGSKSGTSASLAISGPQSEDEADYYCAAWDDSLRGPVFGGGTRVTVL
B6: 3B12 scFvFc (scFv, V domains shown)
VH: QVQLVQSGAEVKKPGSSVKVSCKASGGTFSSYAISWVRQAPGQGLEWMGGIIPIFGTANYAQKFQGRVTITADKSTSTAYMELSSLRSEDTAVYYCARASYCSTTSCASGAFDIWGQGTLVTVSS
VL: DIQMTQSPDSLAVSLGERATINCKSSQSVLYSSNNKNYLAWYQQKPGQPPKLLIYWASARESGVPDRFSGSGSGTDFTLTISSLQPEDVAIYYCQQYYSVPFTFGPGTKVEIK
B7: 3B11 IgG1 (antibody, V domains shown)
VH: QVQLVQSGAEVKKPGSSVKVSCKASGGTFSSYAISWVRQAPGQGLEWMGGIIPIFGTANYAQKFQGRVTITADKSTSTAYMELSSLRSEDTAVYYCARVGYCSSTSCHIGAFDIWGQGTTVTVSS
VL: ETTLTQSPGTLSLSPGERATLSCRASQSVSSSIAWYQQKPGQAPRLLMFDSSTRATGIPDRFSGSGSGTDFTLNISSLEPEDFAVYYCQQYSSSPYTFGQGTKLEIK

What follows are binders tested against T1, Spike (S) protein of live MERS-CoV EMC/2012 (wild type virus) (MERS-CoV, UniProt K9N5Q8 18-1353) (assay: cell-based or functional assay).
T1 sequence: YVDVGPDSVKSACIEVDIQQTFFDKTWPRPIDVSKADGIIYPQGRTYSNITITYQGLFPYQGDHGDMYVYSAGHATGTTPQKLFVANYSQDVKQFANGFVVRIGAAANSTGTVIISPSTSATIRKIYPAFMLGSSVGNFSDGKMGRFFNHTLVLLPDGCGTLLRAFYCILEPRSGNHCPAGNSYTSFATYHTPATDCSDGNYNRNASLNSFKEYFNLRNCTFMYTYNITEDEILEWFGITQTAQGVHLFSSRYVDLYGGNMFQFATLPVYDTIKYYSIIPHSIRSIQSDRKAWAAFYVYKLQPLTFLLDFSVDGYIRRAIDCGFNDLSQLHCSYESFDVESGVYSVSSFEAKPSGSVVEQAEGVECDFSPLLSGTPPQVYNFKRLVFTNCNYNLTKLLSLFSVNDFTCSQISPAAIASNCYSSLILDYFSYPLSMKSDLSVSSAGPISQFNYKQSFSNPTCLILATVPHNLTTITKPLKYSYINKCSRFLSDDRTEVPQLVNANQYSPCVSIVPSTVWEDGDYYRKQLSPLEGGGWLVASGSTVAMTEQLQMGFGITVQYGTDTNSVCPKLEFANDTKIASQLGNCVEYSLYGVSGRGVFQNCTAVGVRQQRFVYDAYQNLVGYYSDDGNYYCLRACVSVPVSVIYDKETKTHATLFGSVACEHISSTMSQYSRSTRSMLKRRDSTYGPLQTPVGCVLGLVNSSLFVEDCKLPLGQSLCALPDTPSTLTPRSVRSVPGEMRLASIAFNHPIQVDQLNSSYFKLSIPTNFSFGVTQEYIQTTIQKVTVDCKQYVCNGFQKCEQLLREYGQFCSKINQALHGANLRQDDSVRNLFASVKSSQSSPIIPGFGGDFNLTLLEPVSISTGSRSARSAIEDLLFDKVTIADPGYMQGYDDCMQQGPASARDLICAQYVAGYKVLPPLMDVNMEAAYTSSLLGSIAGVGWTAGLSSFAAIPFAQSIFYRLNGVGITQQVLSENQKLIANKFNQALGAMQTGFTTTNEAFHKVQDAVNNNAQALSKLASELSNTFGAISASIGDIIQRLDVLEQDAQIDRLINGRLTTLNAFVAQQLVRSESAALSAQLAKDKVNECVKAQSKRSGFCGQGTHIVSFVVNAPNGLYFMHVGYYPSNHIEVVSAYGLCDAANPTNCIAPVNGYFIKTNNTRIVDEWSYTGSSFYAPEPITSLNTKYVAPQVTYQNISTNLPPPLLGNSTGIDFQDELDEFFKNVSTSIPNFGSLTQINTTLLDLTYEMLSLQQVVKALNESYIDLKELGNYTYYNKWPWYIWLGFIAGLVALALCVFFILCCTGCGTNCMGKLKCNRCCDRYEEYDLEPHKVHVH

How did the “IC50 (PRNT50, live wt. virus)” value turn out when B1 was run?
Its value is 1.46 µg/mL.

B2 was tested. Which “IC50 (PRNT50, live wt. virus)” value did it give?
The value was 4.5 µg/mL.

For B3, which “IC50 (PRNT50, live wt. virus)” value is on record?
Its value is 3.21 µg/mL.

For B4, which “IC50 (PRNT50, live wt. virus)” value is on record?
The value was 6.27 µg/mL.

For B5, which “IC50 (PRNT50, live wt. virus)” value is on record?
Its value is 4.05 µg/mL.

With B6 as the binder, how does the “IC50 (PRNT50, live wt. virus)” value read?
The value was 1.25 µg/mL.

Which “IC50 (PRNT50, live wt. virus)” value does the source give for B7 here?
Its value is 3.5 µg/mL.
